Results on three sequences are retold here after article PMC12176259, “Bacterial transcriptional repressor NrdR – a flexible multifactorial nucleotide sensor” (The Febs Journal, 2025).

Where “and” joins values, the source holds several entries; their conditions need not be identical. Equal entries are not always repeated.

The target in this series is T1, NrdR (EcoNrdR) (Escherichia coli K-12 MG1655) (UniProt P0A8D0).
T1 sequence: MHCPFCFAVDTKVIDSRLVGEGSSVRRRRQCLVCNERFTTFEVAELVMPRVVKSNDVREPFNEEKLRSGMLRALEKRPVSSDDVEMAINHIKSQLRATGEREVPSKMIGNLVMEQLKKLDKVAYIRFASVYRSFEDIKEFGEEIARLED
Put plainly: MST. To be noted: 17 mM Tris-HCl pH 8.6 (room temperature), 100 mM NaCl, 7 mM MgCl2, 0.33 mM TCEP, 0.025% Tween-20, nucleotide effectors 1 mM each, 5 nM Cy5-dsDNA, low values mean tight binding.

By Kd is commonly meant the equilibrium constant for the complex coming apart. Lower therefore signals a tighter complex. As for “GCAAAGCACTATATATAGACTTTAAAATGCGTCCCAACCCAATATGTTGTATTAATC (double strand) [nrdDG promoter]”, the Kd is 160 nM and 171 nM and 152 nM.

Turning to “CATACCCCCTATATATAGTGTTCTAAGCAGCTTCCCGTACTACAGGTAGTCTGCATG (double strand) [nrdAB promoter box 1+2]”, the Kd is 128 nM and 113 nM and 96 nM.

With “ACTATTTGCTATATATTGTGTGGTTGAATCTTTTTTCAACTACATCTAGTATCTCTG (double strand) [nrdHIEF promoter (nrdEF_Cy5)]”, the dissociation constant (Kd) is 138 nM and 328 nM and 187 nM.
